Source: the supplement of paper PMC9170038

Tested on: MS2 coat protein
Assay: apparent KD of MS2 coat protein; higher = weaker reporter binding
Conditions: Eterna round: R107
Method: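 RNA-MaP round R107: designed RNA switches with theophylline, tryptophan, arginine or FMN aptamers are transcribed on-chip within common flanks. They are titrated with SNAP-549-labelled MS2 coat protein in RNA-MaP buffer (100 mM Tris pH 7.5, 80 mM KCl, 4 mM MgCl2), without ligand or with the indicated ligand. Median apparent KD per design.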

[1] = input ligand: theophylline 20 uM
[2] = input ligand: theophylline 2 mM
[3] = input ligand: tryptophan 2.4 mM

Row | Sequence | apparent KD of MS2 coat protein (input ligand: arginine 13.2 mM) [nM] | apparent KD of MS2 coat protein (input ligand: none) [nM] | apparent KD of MS2 coat protein [1] [nM] | apparent KD of MS2 coat protein [2] [nM] | apparent KD of MS2 coat protein [3] [nM]
1 | AGCACUGUGACGGCCGCCACUACAUAAUAGGGUGGUCAGGUUCAUAUACAUGAGGAUCACCCAUGUAGGACCGGGUCUCAGUGCA [Omei Trp Exc B A v6] | 8.68 | 10.6 | 12.7 | 12.2 | 9.03
2 | AGCAUACAUUCUGAUACCAGAGACAUGAGGAUCACCCAUGUCCGAUCGUCCUGCCUCAGACUCCCUUGGCAGCAGGAUGUGUGCU [Exclusion Theophylline B GF6] | 13.1 | – | 17.6 | – | 13.8
3 | AGCCACUCGAGUGAUCCUCACGAGUGGCAACGAGGACCGGUACGGCCGCCACUCGAAUAACAUGAGGAUCACCCAUGUUUAUAAU [#01 Tryptophan A - Same State] | 51.1 | – | 176 | 258 | –
4 | AGCCACUCGAGUGAUCCUCACGAGUGGCAACGAGGACCGGUACGGCCGCCACUCGAAUCAACAUGAGGAUCACCCAUGUAAUAAU [Brourdmod01] | 28.2 | 76.3 | 123 | 82.3 | 97.7
5 | AGCCAUGGAAACAUGGCGGCGGCAUGAGCGCGAGGACCGGUACGGCCGCCACUCGGGCGACAUGAGGAUCACCCAUGUUCCUCAU [ETA NP+V+V2 #22 Same Structure] | 145 | 289 | 312 | 451 | 422
6 | AGCCAUGGAAACAUGGCGGCGGCUUGGGCGCGAGGACCGGUACGGCCGCCACUCGGGCAACAUGAGGAUCACCCAUGUUCCUCAU [ETA NP+V+V2 #18] | 84.6 | 128 | 245 | 317 | 161
7 | AGCGACAUGCGUGAUACCAGCUACAUGAGGAUCACCCAUGUCAGCAGGGAACUGCUGUGUAGCCCUUGGCAGCACAGUGCAUGUC [Exclusion - Theophylline B (Freestyle 29)] | 13 | 10.8 | 12.3 | 23.1 | 10.2
8 | AGCGAUUUCGGAAGGAGCGGUACAUGAGGAUCACCCAUGUAUUCAAUCGUGAUCGGCGCGUGCCAGGUAGGUCGCCGAAGGCGUC [Veatat] | 12.4 | 9.95 | 14.9 | 10.9 | 11.9
9 | AGCGCAUCCGUAUAGGAUGCGCUCCAUGAAGGAGCGCGGGAAACCGCAGGUAGGUCGCGUGACAUGAGGAUCACCCAUGUGUAUU [#17 Same State - Arginine A] | 16.9 | 20 | 27.7 | 22.8 | 20.9
10 | AGCGGCUCGAAAGAGUCGCACUCAUGUGAAGGAGCGCGCGUAAGCGCAGGUAGGUCGCACAUGAGGAUCACCCAUGUACCUUCUA [MAT - Exclusion Arginine A - Mod of Eli - D21] | 68.5 | 235 | 206 | 262 | 118
11 | AGCUCGCAUCCUCUAGCGUCAAAGACGCGUCGAGGACCGGUACGGCCGCCACUCGACGUGAGGAUCACCCACGUCUAAGCGAGCA [TrypAX 10 #SwitchBubble #AlternativeMS2 #MS2Late #CuTurnoff] | 19.7 | 25.5 | 31.7 | 30.6 | 295
12 | AGCUUGUAGUCGGCCGCCACUAAUAGGGAUCCUAUCGAGGCGGGUAACAUGAGGAUCACCCAUGUUAGGACCGGGACAGCGAGGA [Cetian] | 10 | 16.6 | 15.4 | 11.6 | 10.8
13 | AGGAAUGUCACGGCCGCCACUGACGCUAAAAUGGGCUCGAGCCGACAUGAGGAUCACCCAUGUUCCAGGACCGGGUGAAUCCUGG [theeternabot_sameState_MS2_Trp_B_40] | 102 | – | 154 | 299 | –
14 | AGGGACAUGAGGAUCACCCAUGUUGAAACUCGAGGACCGGUACGGCCGCCACUCGUAUAAUCGAUGUCCAUUUGGGAUUCCGGCU [theeternabot_sameState_MS2_Trp_A_17] | 21.4 | – | 32.8 | 39 | –
15 | AGGUGCUGAUCGGCCGCCACUGAGAGGACGUGAACUUUAGCUGGUUACAUGAGGAUCACCCAUGUCAGGACCGGGAUUAGUUUGC [Quleorla] | 11.3 | – | 17.4 | 10.7 | –
16 | AGUAAUCUAAGAGAUACCAGACGGUAUAUAACAUGAGGAUCACCCAUGUUUUGGGUGUACGUCCCUUGGCAGCUCAAAAUGAUAA [#06 Same State - Theophylline B] | 123 | – | 202 | – | 382
